Where a chain is given by its changes, count along the chain named. Where “and” joins values, the source holds several entries; their conditions need not be identical. Equal values may be shown once.
T1: recombinant human APRIL (human, UniProt O75888 105-250, limits assumed)
T1 sequence (looked up): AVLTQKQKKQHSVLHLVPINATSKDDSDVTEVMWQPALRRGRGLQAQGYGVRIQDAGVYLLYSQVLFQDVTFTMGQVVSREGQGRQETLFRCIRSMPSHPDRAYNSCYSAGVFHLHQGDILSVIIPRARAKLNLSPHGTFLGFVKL

B1: Telitacicept (label of two rows of Table E29) (Fc fusion, not shown: a dimerising Fc or GST)
chain: SRVDQEERFPQGLWTGVAMRSCPEEQYWDPLLGTCMSCKTICNHQSQRTCAAFCRSLSCRKEQGKFYDHLLRDCISCASICGQHPKQCAYFCENKLRSPVNLPPEL
B2: belimumab (antibody, V domains shown)
VH: QVQLQQSGAEVKKPGSSVRVSCKASGGTFNNNAINWVRQAPGQGLEWMGGIIPMFGTAKYSQNFQGRVAITADESTGTASMELSSLRSEDTAVYYCARSRDLLLFPHHALSPWGRGTMVTVSS
VL: SSELTQDPAVSVALGQTVRVTCQGDSLRSYYASWYQQKPGQAPVLVIYGKNNRPSGIPDRFSGSSSGNTASLTITGAQAEDEADYYCSSRDSSGNHWVFGGGTELTVLG
B3: 20 TACI CRD2-Fc (Fc fusion)
variant TACI domain - linker - Fc fusion chain: SLSCRKEQGKFYDHLLGDCISCASICGQHPKQCAYFCENKLRSGSGGGGSEPKSSDKTHTCPPCPAPEAEGAPSVFLFPPKPKDTLMISRTPEVTCVVVDVSHEDPEVKFNWYVDGVEVHNAKTKPREEQYNSTYRVVSVLTVLHQDWLNGKEYKCKVSNKALPAPIEKTISKAKGQPREPQVYTLPPSRDELTKNQVSLTCLVKGFYPSDIAVEWESNGQPENNYKTTPPVLDSDGSFFLYSKLTVDKSRWQQGNVFSCSVMHEALHNHYTQKSLSLSPG
B4: 31 TACI CRD2-Fc (Fc fusion)
variant TACI domain - linker - Fc fusion chain: B3 variant TACI domain - linker - Fc fusion chain with G17Q, S21N, A34D

What was measured:
[1] = target: recombinant human BAFF (human) (UniProt Q9Y275); assay: cell-based or functional assay
recombinant human APRIL [2] = target: T1, recombinant human APRIL; assay: cell-based or functional assay
[3] = target: recombinant human BAFF (human) (UniProt Q9Y275)
recombinant human BAFF [4] = target: T2, recombinant human BAFF (human, UniProt Q9Y275 134-285); assay: cell-based or functional assay
recombinant human BAFF [5] = target: T2, recombinant human BAFF; assay: cell-based or functional assay; remark: listed apart in the source
recombinant human APRIL [6] = target: T1, recombinant human APRIL; assay: cell-based or functional assay; remark: listed apart in the source
recombinant human BAFF [7] = target: T2, recombinant human BAFF; assay: cell-based or functional assay; remark: listed apart in the source

Molecule	BAFF IC50 (pM) [1]	BAFF IC50 (ΔWT) (fold of WT TACI (68-110)-Fc) [1]	APRIL IC50 (pM) (recombinant human APRIL [2])	APRIL IC50 (ΔWT) (fold of WT TACI (68-110)-Fc) (recombinant human APRIL [2])	also measured
BAFF-R ECD (from UniProt Q96RJ3 1-78) (receptor)	53200 pM	28.7	–	–	–
TACI 13-118-Fc (Fc fusion)	7900 pM	4.26	–	–	IC50 (nM) BAFF [1]: 8450 nM; IC50 BAFF (Δ TACI 30-110) (fold of TACI 30-110) [1]: 1.88; IC50 BAFF (Δ TACI 30-110-Fc) (fold of TACI 30-110-Fc) [1]: 1.33; IC50 (nM) APRIL (recombinant human APRIL [2]): 7810 nM; IC50 APRIL (Δ TACI 30-110) (fold of TACI 30-110) (recombinant human APRIL [2]): 1.81; IC50 APRIL (Δ TACI 30-110-Fc) (fold of TACI 30-110-Fc) (recombinant human APRIL [2]): 2.37
TACI 30-110-Fc (Fc fusion)	7740 pM	4.17	–	–	IC50 (nM) BAFF [1]: 4490 nM; IC50 BAFF (Δ TACI 30-110) (fold of TACI 30-110) [1]: 1; IC50 BAFF (Δ TACI 30-110-Fc) (fold of TACI 30-110-Fc) [1]: 1; IC50 (nM) APRIL (recombinant human APRIL [2]): 4320 nM; IC50 APRIL (Δ TACI 30-110) (fold of TACI 30-110) (recombinant human APRIL [2]): 1; IC50 APRIL (Δ TACI 30-110-Fc) (fold of TACI 30-110-Fc) (recombinant human APRIL [2]): 1
TACI vTD-Fc A101D (SEQ ID NO: 23) (Fc fusion)	1830 pM	0.99	8380	0.68	IC50 (read off the curve): blockade of human BAFF signalling via TACI (NF-κB luciferase reporter, Jurkat/NF-κB/TACI cells) [3]: 0.6 nM
TACI vTD-Fc A101D, Y102D (SEQ ID NO: 189) (Fc fusion)	1950 pM	1.05	33600	2.72	–
TACI vTD-Fc F78Y (SEQ ID NO: 183) (Fc fusion)	1640 pM	0.88	176	0.01	–
TACI vTD-Fc F78Y, A101D (SEQ ID NO: 185) (Fc fusion)	1850 pM	1	2020	0.16	–
TACI vTD-Fc F78Y, R84Q (SEQ ID NO: 184) (Fc fusion)	2260 pM	1.22	2620	0.21	–
TACI vTD-Fc F78Y, Y102D (SEQ ID NO: 186) (Fc fusion)	1960 pM	1.06	8490	0.69	–
TACI vTD-Fc K77E (SEQ ID NO: 32) (Fc fusion)	1540 pM	0.83	159	0.01	–
TACI vTD-Fc K77E, A101D (SEQ ID NO: 25) (Fc fusion)	1960 pM	1.06	2040	0.17	IC50 (read off the curve): blockade of human BAFF signalling via TACI (NF-κB luciferase reporter, Jurkat/NF-κB/TACI cells) [3]: 0.6 nM
TACI vTD-Fc K77E, F78Y (SEQ ID NO: 191) (Fc fusion)	1970 pM	1.06	10100	0.82	–
TACI vTD-Fc K77E, F78Y, R84Q (SEQ ID NO: 182) (Fc fusion)	2210 pM	1.19	10100	0.82	–
TACI vTD-Fc K77E, R84Q (SEQ ID NO: 24) (Fc fusion)	2260 pM	1.22	4260	0.35	IC50 (read off the curve): blockade of human BAFF signalling via TACI (NF-κB luciferase reporter, Jurkat/NF-κB/TACI cells) [3]: 0.6 nM
TACI vTD-Fc K77E, Y102D (SEQ ID NO: 192) (Fc fusion)	2180 pM	1.17	891	0.07	–
TACI vTD-Fc Q75E (SEQ ID NO: 177) (Fc fusion)	1460 pM	0.79	1940	0.16	–
TACI vTD-Fc Q75E, A101D (SEQ ID NO: 180) (Fc fusion)	2360 pM	1.27	20000	1.62	–
TACI vTD-Fc Q75E, F78Y (SEQ ID NO: 179) (Fc fusion)	1790 pM	0.97	13400	1.09	–
TACI vTD-Fc Q75E, K77E (SEQ ID NO: 178) (Fc fusion)	1890 pM	1.02	10700	0.87	–
TACI vTD-Fc Q75E, Y102D (SEQ ID NO: 181) (Fc fusion)	–	–	11100	–	–
TACI vTD-Fc R84Q (SEQ ID NO: 30) (Fc fusion)	5490 pM	2.96	566	0.05	IC50 (read off the curve): blockade of human BAFF signalling via TACI (NF-κB luciferase reporter, Jurkat/NF-κB/TACI cells) [3]: 1 nM
TACI vTD-Fc R84Q, A101D (SEQ ID NO: 187) (Fc fusion)	2350 pM	1.27	11200	0.91	–
TACI vTD-Fc R84Q, Y102D (SEQ ID NO: 188) (Fc fusion)	1860 pM	1.01	12300	1	–
TACI vTD-Fc Y102D (SEQ ID NO: 190) (Fc fusion)	–	–	11600	–	–
B1	9170 pM and 7300 pM	4.95 and 3.94	–	–	–
B2	–	–	–	–	BAFF IC50 (pM) (recombinant human BAFF [4]): 2200 pM; BAFF IC50 (ΔWT) (recombinant human BAFF [4]): 1.18 fold of WT TACI (68-110)-Fc; IC50 BAFF (Δ TACI 30-110-Fc) (recombinant human BAFF [5]): 0.43 fold of TACI 30-110-Fc; IC50 APRIL (Δ TACI 30-110-Fc) (recombinant human APRIL [6]): 55.8 fold of TACI 30-110-Fc
B3	–	–	–	–	IC50 (read off the curve): blockade of human BAFF signalling via TACI (NF-κB luciferase reporter, Jurkat/NF-κB/TACI cells) (recombinant human BAFF [7]): ~0.7 nM
B4	–	–	–	–	IC50 (read off the curve): blockade of human BAFF signalling via TACI (NF-κB luciferase reporter, Jurkat/NF-κB/TACI cells) (recombinant human BAFF [7]): ~0.6 nM
